Measured values: article PMC5536962 (Cell reports, 2015)

T1: Mcm10 (GST tag removed) (yeast, UniProt P32354 1-571)
T1 sequence (looked up): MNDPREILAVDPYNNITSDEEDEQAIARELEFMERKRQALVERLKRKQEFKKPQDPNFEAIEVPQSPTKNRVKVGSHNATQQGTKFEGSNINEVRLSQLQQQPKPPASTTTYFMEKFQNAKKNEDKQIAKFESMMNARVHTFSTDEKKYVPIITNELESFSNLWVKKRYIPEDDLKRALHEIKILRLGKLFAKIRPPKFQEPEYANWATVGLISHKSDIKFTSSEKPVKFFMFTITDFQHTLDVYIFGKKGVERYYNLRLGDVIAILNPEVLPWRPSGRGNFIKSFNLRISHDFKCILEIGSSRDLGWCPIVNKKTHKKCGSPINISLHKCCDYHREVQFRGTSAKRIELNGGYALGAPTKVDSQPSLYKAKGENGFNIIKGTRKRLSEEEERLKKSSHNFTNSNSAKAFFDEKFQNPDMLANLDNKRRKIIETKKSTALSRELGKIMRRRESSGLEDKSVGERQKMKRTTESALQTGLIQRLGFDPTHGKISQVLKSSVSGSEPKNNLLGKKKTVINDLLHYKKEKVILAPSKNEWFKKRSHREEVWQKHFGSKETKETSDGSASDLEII

T2: GST-Mcm10 (yeast, UniProt P32354 1-571)
T2 sequence (looked up): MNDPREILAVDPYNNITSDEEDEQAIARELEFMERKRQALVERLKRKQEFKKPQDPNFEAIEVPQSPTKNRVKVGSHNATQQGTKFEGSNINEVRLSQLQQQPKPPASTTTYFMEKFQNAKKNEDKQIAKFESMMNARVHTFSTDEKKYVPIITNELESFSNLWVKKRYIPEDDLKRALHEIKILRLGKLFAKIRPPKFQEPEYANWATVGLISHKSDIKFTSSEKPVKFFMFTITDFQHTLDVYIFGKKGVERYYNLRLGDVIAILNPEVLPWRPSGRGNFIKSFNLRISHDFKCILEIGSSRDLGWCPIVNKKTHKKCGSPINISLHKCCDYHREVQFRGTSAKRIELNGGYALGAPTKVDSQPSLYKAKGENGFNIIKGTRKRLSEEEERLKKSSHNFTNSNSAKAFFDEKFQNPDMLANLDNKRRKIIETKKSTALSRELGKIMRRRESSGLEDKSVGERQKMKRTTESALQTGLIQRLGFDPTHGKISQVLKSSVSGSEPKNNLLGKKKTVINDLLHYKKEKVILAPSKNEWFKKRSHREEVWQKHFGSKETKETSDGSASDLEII

B1: GST-Mcm6 (1-439) (domain or fragment, yeast, UniProt P53091 1-439, looked up)
chain: MSSPFPADTPSSNRPSNSSPPPSSIGAGFGSSSGLDSQIGSRLHFPSSSQPHVSNSQTGPFVNDSTQFSSQRLQTDGSATNDMEGNEPARSFKSRALNHVKKVDDVTGEKVREAFEQFLEDFSVQSTDTGEVEKVYRAQIEFMKIYDLNTIYIDYQHLSMRENGALAMAISEQYYRFLPFLQKGLRRVVRKYAPELLNTSDSLKRSEGDEGQADEDEQQDDDMNGSSLPRDSGSSAAPGNGTSAMATRSITTSTSPEQTERVFQISFFNLPTVHRIRDIRSEKIGSLLSISGTVTRTSEVRPELYKASFTCDMCRAIVDNVEQSFKYTEPTFCPNPSCENRAFWTLNVTRSRFLDWQKVRIQENANEIPTGSMPRTLDVILRGDSVERAKPGDRCKFTGVEIVVPDVTQLGLPGVKPSSTLDTRGISKTTEGLNSGVTG
B2: GST-Mcm4 (1-471) (domain or fragment, yeast, UniProt P30665 1-471, looked up)
chain: MSQQSSSPTKEDNNSSSPVVPNPDSVPPQLSSPALFYSSSSSQGDIYGRNNSQNLSQGEGNIRAAIGSSPLNFPSSSQRQNSDVFQSQGRQGRIRSSASASGRSRYHSDLRSDRALPTSSSSLGRNGQNRVHMRRNDIHTSDLSSPRRIVDFDTRSGVNTLDTSSSSAPPSEASEPLRIIWGTNVSIQECTTNFRNFLMSFKYKFRKILDEREEFINNTTDEELYYIKQLNEMRELGTSNLNLDARNLLAYKQTEDLYHQLLNYPQEVISIMDQTIKDCMVSLIVDNNLDYDLDEIETKFYKVRPYNVGSCKGMRELNPNDIDKLINLKGLVLRSTPVIPDMKVAFFKCNVCDHTMAVEIDRGVIQEPARCERIDCNEPNSMSLIHNRCSFADKQVIKLQETPDFVPDGQTPHSISLCVYDELVDSCRAGDRIEVTGTFRSIPIRANSRQRVLKSLYKTYVDVVHVKKVSD

Legend:
Assay in all cases: pull-down
Mcm10 (GST tag removed) = target: T1, Mcm10 (GST tag removed)
GST-Mcm10 = target: T2, GST-Mcm10
GST-Mcm4 (1-471) = target: B2
GST-Mcm6 (1-439) = target: B1

| Binder | binding result (Mcm10 (GST tag removed)) | binding result (GST-Mcm10) | binding result (GST-Mcm4 (1-471)) | binding result (GST-Mcm6 (1-439)) |
| --- | --- | --- | --- | --- |
| B1 | binds |  |  |  |
| B2 | binds |  |  |  |
| 6His-Mcm2 (1-299) (domain or fragment, yeast, UniProt P29469 1-299, looked up) MSDNRRRRREEDDSDSENELPPSSPQQHFRGGMNPVSSPIGSPDMINPEGDDNEVDDVPDIDEVEEQMNEVDLMDDNMYEDYAADHNRDRYDPDQVDDREQQELSLSERRRIDAQLNERDRLLRNVAYIDDEDEEQEGAAQLDEMGLPVQRRRRRRQYEDLENSDDDLLSDMDIDPLREELTLESLSNVKANSYSEWITQPNVSRTIARELKSFLLEYTDETGRSVYGARIRTLGEMNSESLEVNYRHLAESKAILALFLAKCPEEMLKIFDLVAMEATELHYPDYARIHSEIHVRISD |  | binds | binds | binds |
